The values below come from patent publication US8129349B2, “Treatment of disease by inducing cell apoptosis” (The Regents of the University of California, priority 2000, dated 2012).

One assay addresses T1, procaspase 1 (Homo sapiens, UniProt P29466).
T1 construct: purchased Alexis Biochemicals 201-056
T1 sequence (P29466 1-404): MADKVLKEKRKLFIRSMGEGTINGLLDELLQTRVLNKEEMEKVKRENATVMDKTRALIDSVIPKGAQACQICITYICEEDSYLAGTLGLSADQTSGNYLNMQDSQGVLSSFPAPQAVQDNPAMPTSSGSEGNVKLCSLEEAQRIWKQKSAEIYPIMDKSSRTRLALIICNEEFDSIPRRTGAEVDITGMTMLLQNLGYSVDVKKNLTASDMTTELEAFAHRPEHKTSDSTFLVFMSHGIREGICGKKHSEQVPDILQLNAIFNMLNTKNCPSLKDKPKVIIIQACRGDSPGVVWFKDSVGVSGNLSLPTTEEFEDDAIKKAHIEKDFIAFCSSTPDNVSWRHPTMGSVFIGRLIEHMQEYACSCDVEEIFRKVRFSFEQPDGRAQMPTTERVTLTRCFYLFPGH
Nature of the assay: Co-immunoprecipitation of purified recombinant procaspase 1 with recombinant C/EBPβ peptides. The format is binding. The note with it: peptides 200 μM, procaspase 1 0.6 U, quantitated by densitometry. The procedure: (§1) FIG. 5 provides results showing the direct association of C/EBPβ-Glu^217 with procaspases 1 and 8. […] Enzyme activity was measured in the absence (control) or presence of C/EBPβ peptides (200 μM) for 2 h, using a procaspases 1 (1U) (not shown) and 8 (0.2 μg) activity assay. Values are presented as the mean±one half the range of duplicates. Panel C provides results for cells cultured on a collagen type I matrix and incubated with the indicated cell permeant, purified synthetic N-acetyl, C-aldehyde C/EBPβ tetra-peptides (10 μM) or with recombinant C/EBPβ-HA peptides as indicated, together with the Chariot reagent (Active Motif) for 4 h. Control cells were incubated without peptides (P<0.05 for all peptides containing Ala^217).
(§2) Purified recombinant C/EBPβ peptides, expressed as known in the art (See, Descombes et al., supra; and Buck et al. (1994), supra), and purified synthetic N-acetyl, C-aldehyde tetrapeptides (200 μM) (American Peptide Company) were assayed for their ability to inhibit the activity of purified human recombinant caspases 1 (catalogue # 201-056) and 8 (catalogue # 201-041-C005) (Alexis Biochemicals). The sequence of caspase 8 includes Ser217 through Asp479 cloned into an expression vector containing a 21 amino acid linker at the N-terminus. Thus, the prodomain (first 220 amino acids) is essentially missing. The fragment is cleaved at Asp385 and the active caspases are essentially identical to those identified in apoptotic cells (Stennicke and Salvesen, Meth. Enzymol., 322:91-100 (1997)). Caspase activity was determined by the release of the p-nitroaniline colorimetric (Alexis Biochemicals) substrate for caspase 1 (catalogue # 260-026) or 8 (catalogue # 260-045) within the linear part of the kinetic assay (Thornberry et al. (1997), supra; Stennicke and Salvesen, supra). Caspase 1 and 8 activity in cells was performed with colorimetric kits (catalogues # 850-211-K and 850-221-K) as described by the manufacturer (Alexis) (See also, Thornberry et al. (1997), supra). The caspase 8 inhibitor IETD was from Calbiochem (Catalogue # 218773).
To delineate the role of C/EBPβ on the activation of procaspases 1 and 8, the self-activation of recombinant procaspases 1 and 8 was induced in vitro (Wilson et al., supra; Margolin et al., supra; and Earnshaw et al., supra), and the effect of purified recombinant C/EBPβ peptides, produced as described previously (Descombes et al., supra; and Buck et al., (1994), supra) on this process was determined. Consistent with the in vivo results described above, C/EBPβ-HA-Glu^217 and C/EBPβ 216-253-HA-Glu^217, but not C/EBPβ-HA-Ala^217, peptides associated with procaspases 1 and 8 (See, FIG. 5, Panel A). […]

For the next assay, the target named is procaspase 8 (Homo sapiens, UniProt Q14790). Nature of the assay: Co-immunoprecipitation of purified recombinant procaspase 8 with recombinant C/EBPβ peptides. In kind it is binding. More on the design: 21 amino acid linker (vector-derived) (N); purchased Alexis Biochemicals 201-041-C005. The note with it: peptides 200 μM, procaspase 8 0.12 μg, quantitated by densitometry. The procedure:
as §1
as §2, with “The fragment is cleaved at Asp385 and the active caspases are essentially identical to those identified in apoptotic cells (Stennicke and Salvesen, Meth. Enzymol., 322:91-100 (1997)).” left out, “Caspase 1 and 8 activity in cells was performed with colorimetric kits (catalogues # 850-211-K and 850-221-K) as described by the manufacturer (Alexis) (See also, Thornberry et al. (1997), supra). The caspase 8 inhibitor IETD was from Calbiochem (Catalogue # 218773).” left out
(§3) To delineate the role of C/EBPβ on the activation of procaspases 1 and 8, the self-activation of recombinant procaspases 1 and 8 was induced in vitro (Wilson et al., supra; Margolin et al., supra; and Earnshaw et al., supra), and the effect of purified recombinant C/EBPβ peptides, produced as described previously (Descombes et al., supra; and Buck et al., (1994), supra) on this process was determined. […]

A further assay deals with T2, caspase 1 (Homo sapiens, UniProt P29466).
T2 construct: purchased Alexis Biochemicals 201-056
T2 sequence (P29466 120-404): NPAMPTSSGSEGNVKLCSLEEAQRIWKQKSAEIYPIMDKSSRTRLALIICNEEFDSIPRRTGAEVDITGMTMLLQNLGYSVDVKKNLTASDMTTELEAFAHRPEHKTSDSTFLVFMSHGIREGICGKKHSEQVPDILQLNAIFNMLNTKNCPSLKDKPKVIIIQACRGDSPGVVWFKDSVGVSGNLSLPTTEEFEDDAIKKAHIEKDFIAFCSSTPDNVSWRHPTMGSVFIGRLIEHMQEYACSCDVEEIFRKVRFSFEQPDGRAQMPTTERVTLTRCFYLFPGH
Briefly: In vitro self-activation of recombinant caspase 1. The format is biochemical. The note with it: peptides 200 μM, 2 h, procaspase 1 (1U). The procedure: as §1
as §2, with “The fragment is cleaved at Asp385 and the active caspases are essentially identical to those identified in apoptotic cells (Stennicke and Salvesen, Meth. Enzymol., 322:91-100 (1997)).” left out, “Caspase 1 and 8 activity in cells was performed with colorimetric kits (catalogues # 850-211-K and 850-221-K) as described by the manufacturer (Alexis) (See also, Thornberry et al. (1997), supra). The caspase 8 inhibitor IETD was from Calbiochem (Catalogue # 218773).” left out
as §3

Sequence of procaspase 8 (Q14790 217-479): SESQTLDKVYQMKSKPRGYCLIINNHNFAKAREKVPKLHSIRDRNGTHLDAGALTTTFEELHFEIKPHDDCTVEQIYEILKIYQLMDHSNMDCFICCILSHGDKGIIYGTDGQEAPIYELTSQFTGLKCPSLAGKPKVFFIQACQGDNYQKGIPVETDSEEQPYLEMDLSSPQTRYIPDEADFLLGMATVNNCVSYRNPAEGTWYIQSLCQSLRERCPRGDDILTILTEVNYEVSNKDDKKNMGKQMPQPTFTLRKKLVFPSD

B1: C/EBPβ-Glu^217: modified murine C/EBPβ with mutation of Thr^217 to glutamic acid (SEQ ID NO:4), phosphorylation mimic (protein, listed as Mus musculus)
chain: MHRLLAWDAACLPPPPAAFRPMEVANFYYEPDCLAYGAKAARAAPRAPAAEPAIGEHERAIDFSPYLEPLAPAADFAAPAPAHHDFLSDLFADDYGAKPSKKPADYGYVSLGRAGAKAAPPACFPPPPPAALKAEPGFEPADCKRADDAPAMAAGFPFALRAYLGYQATPSGSSGSLSTSSSSSPPGTPSPADAKAAPAACFAGPPAAPAKAKAKKZVDKLSDEYKMRRERNNIAVRKSRDKAKMRNLETQHKVLELTAENERLQKKVEQLSRELSTLRNLFKQLPEPLLASAGHC
As for B1, the “Co-immunoprecipitation of procaspase 1, fold more than the Ala^217 peptides” value with procaspase 1 came out at 7 fold. Further, the “Co-immunoprecipitation of procaspase 8, fold more than the Ala^217 peptides” value with procaspase 8 amounted to 12 fold. Also, the “Inhibition of in vitro self-activation of caspase 1” value with caspase 1 was “inhibited the in vitro self-activation”.
